From the supplement of paper PMC5998384

Columns and labels:
[1] = tested on: HeLa Kyoto; assay: solubility change mitosis vs G1/S (difference of NP-40 vs SDS log2 ratios) (log2 ratio difference); higher = more soluble in mitosis
[2] = tested on: HeLa Kyoto; assay: solubility in G1/S (NP-40 vs SDS abundance) (log2 ratio); higher = more soluble; details: cell cycle stage: G1/S
[3] = tested on: HeLa Kyoto; assay: melting temperature (median over replicates), in situ; higher = more thermally stable
[4] = tested on: HeLa Kyoto; assay: thermal stability score vs G1/S (z-score of summed log2 fold changes over temperatures); higher = more thermally stable than in G1/S
[5] = cell cycle stage: early G1 (4.5 h after nocodazole release)
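Wherever melting temperature (median over replicates), in situ is given: HeLa Kyoto cells synchronized by double thymidine or nocodazole block, proteins quantified by TMT10plex mass spectrometry, three independent biological replicates.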
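Wherever solubility change mitosis vs G1/S (difference of NP-40 vs SDS log2 ratios) is given: synchronized HeLa Kyoto cells (double thymidine block for G1/S, nocodazole release for mitosis), protein amounts in NP-40 versus SDS lysates quantified by mass spectrometry, three biological replicates.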
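Wherever solubility in G1/S (NP-40 vs SDS abundance) is given: HeLa Kyoto cells arrested at G1/S by double thymidine block, proteins quantified by TMT10plex mass spectrometry in mild NP-40 versus SDS extracts, three biological replicates.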
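Wherever thermal stability score vs G1/S (z-score of summed log2 fold changes over temperatures) is given: synchronized HeLa Kyoto cells, proteins quantified by TMT10plex mass spectrometry, three biological replicates, mitosis taken 0.5 h after nocodazole release, G1/S directly after double thymidine block.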

Sequence of CIAO1 (chain, as listed by the source): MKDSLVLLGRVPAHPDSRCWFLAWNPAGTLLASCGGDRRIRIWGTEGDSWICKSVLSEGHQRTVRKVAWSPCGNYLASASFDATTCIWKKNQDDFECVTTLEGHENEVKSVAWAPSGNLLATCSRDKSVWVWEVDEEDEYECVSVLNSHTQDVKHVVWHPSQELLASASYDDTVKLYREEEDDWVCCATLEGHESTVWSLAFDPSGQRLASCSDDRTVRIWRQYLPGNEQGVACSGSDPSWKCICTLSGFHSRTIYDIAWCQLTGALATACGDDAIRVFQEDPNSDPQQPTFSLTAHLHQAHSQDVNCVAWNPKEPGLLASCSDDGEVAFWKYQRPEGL

| Substance | solubility change mitosis (log2) [1] | solubility in G1/S (log2) [2] | melting temperature ([3]; cell cycle stage: G1/S) [°C] | melting temperature ([3]; cell cycle stage: mitosis) [°C] | thermal stability score [4, 5] | thermal stability score ([4]; cell cycle stage: mitosis) |
| --- | --- | --- | --- | --- | --- | --- |
| MAHTTKVNGSASGKAGDILSGDQDKEQKDPYFVETPYGYQLDLDFLKYVDDIQKGNTIKRLNIQKRRKPSVPCPEPRTTSGQQGIWTSTESLSSSNSDDNKQCPNFLIARSQVTSTPISKPPPPLETSLPFLTIPENRQLPPPSPQLPKHNLHVTKTLMETRRRLEQERATMQMTPGEFRRPRLASFGGMGTTSSLPSFVGSGNHNPAKHQLQNGYQGNGDYGSYAPAAPTTSSMGSSIRHSPLSSGISTPVTNVSPMHLQHIREQMAIALKRLKELEEQVRTIPVLQVKISVLQEEKRQLVSQLKNQRAASQINVCGVRKRSYSAGNASQLEQLSRARRSGGELYIDYEEEEMETVEQSTQRIKEFRQLTADMQALEQKIQDSSCEASSELRENGECRSVAVGAEENMNDIVVYHRGSRSCKDAAVGTLVEMRNCGVSVTEAMLGVMTEADKEIELQQQTIESLKEKIYRLEVQLRETTHDREMTKLKQELQAAGSRKKVDKATMAQPLVFSKVVEAVVQTRDQMVGSHMDLVDTCVGTSVETNSVGISCQPECKNKVVGPELPMNWWIVKERVEMHDRCAGRSVEMCDKSVSVEVSVCETGSNTEESVNDLTLLKTNLNLKEVRSIGCGDCSVDVTVCSPKECASRGVNTEAVSQVEAAVMAVPRTADQDTSTDLEQVHQFTNTETATLIESCTNTCLSTLDKQTSTQTVETRTVAVGEGRVKDINSSTKTRSIGVGTLLSGHSGFDRPSAVKTKESGVGQININDNYLVGLKMRTIACGPPQLTVGLTASRRSVGVGDDPVGESLENPQPQAPLGMMTGLDHYIERIQKLLAEQQTLLAENYSELAEAFGEPHSQMGSLNSQLISTLSSINSVMKSASTEELRNPDFQKTSLGKITGNYLGYTCKCGGLQSGSPLSSQTSQPEQEVGTSEGKPISSLDAFPTQEGTLSPVNLTDDQIAAGLYACTNNESTLKSIMKKKDGNKDSNGAKKNLQFVGINGGYETTSSDDSSSDESSSSESDDECDVIEYPLEEEEEEEDEDTRGMAEGHHAVNIEGLKSARVEDEMQVQECEPEKVEIRERYELSEKMLSACNLLKNTINDPKALTSKDMRFCLNTLQHEWFRVSSQKSAIPAMVGDYIAAFEAISPDVLRYVINLADGNGNTALHYSVSHSNFEIVKLLLDADVCNVDHQNKAGYTPIMLAALAAVEAEKDMRIVEELFGCGDVNAKASQAGQTALMLAVSHGRIDMVKGLLACGADVNIQDDEGSTALMCASEHGHVEIVKLLLAQPGCNGHLEDNDGSTALSIALEAGHKDIAVLLYAHVNFAKAQSPGTPRLGRKTSPGPTHRGSFD [KANK1] | -0.0616 | -0.0496 | 49.3 | 49.4 | 0.397 | 2.14 |
| MASVAVDPQPSVVTRVVNLPLVSSTYDLMSSAYLSTKDQYPYLKSVCEMAENGVKTITSVAMTSALPIIQKLEPQIAVANTYACKGLDRIEERLPILNQPSTQIVANAKGAVTGAKDAVTTTVTGAKDSVASTITGVMDKTKGAVTGSVEKTKSVVSGSINTVLGSRMMQLVSSGVENALTKSELLVEQYLPLTEEELEKEAKKVEGFDLVQKPSYYVRLGSLSTKLHSRAYQQALSRVKEAKQKSQQTISQLHSTVHLIEFARKNVYSANQKIQDAQDKLYLSWVEWKRSIGYDDTDESHCAEHIESRTLAIARNLTQQLQTTCHTLLSNIQGVPQNIQDQAKHMGVMAGDIYSVFRNAASFKEVSDSLLTSSKGQLQKMKESLDDVMDYLVNNTPLNWLVGPFYPQLTESQNAQDQGAEMDKSSQETQRSEHKTH [PLIN2] | 0.0233 | 0.307 | 53.2 | 53.3 | 0.285 | 0.347 |
| DIDO1 | 0.231 | -0.458 | 49.1 | 49.8 | 0.743 | 4.5 |
| MSRCAQAAEVAATVPGAGVGNVGLRPPMVPRQASFFPPPVPNPFVQQTQIGSARRVQIVLLGIILLPIRVLLVALILLLAWPFAAISTVCCPEKLTHPITGWRRKITQTALKFLGRAMFFSMGFIVAVKGKIASPLEAPVFVAAPHSTFFDGIACVVAGLPSMVSRNENAQVPLIGRLLRAVQPVLVSRVDPDSRKNTINEIIKRTTSGGEWPQILVFPEGTCTNRSCLITFKPGAFIPGVPVQPVLLRYPNKLDTVTWTWQGYTFIQLCMLTFCQLFTKVEVEFMPVQVPNDEEKNDPVLFANKVRNLMAEALGIPVTDHTYEDCRLMISAGQLTLPMEAGLVEFTKISRKLKLDWDGVRKHLDEYASIASSSKGGRIGIEEFAKYLKLPVSDVLRQLFALFDRNHDGSIDFREYVIGLAVLCNPSNTEEIIQVAFKLFDVDEDGYITEEEFSTILQASLGVPDLDVSGLFKEIAQGDSISYEEFKSFALKHPEYAKIFTTYLDLQTCHVFSLPKEVQTTPSTASNKVSPEKHEESTSDKKDD [LPCAT2] | -0.289 | -0.00721 | 51.3 | 52.5 | 1.39 | 1.37 |
| CIAO1 | -0.176 | -0.222 | 52.5 | 52.9 | -0.588 | -2.26 |
| MAPQNLSTFCLLLLYLIGAVIAGRDFYKILGVPRSASIKDIKKAYRKLALQLHPDRNPDDPQAQEKFQDLGAAYEVLSDSEKRKQYDTYGEEGLKDGHQSSHGDIFSHFFGDFGFMFGGTPRQQDRNIPRGSDIIVDLEVTLEEVYAGNFVEVVRNKPVARQAPGKRKCNCRQEMRTTQLGPGRFQMTQEVVCDECPNVKLVNEERTLEVEIEPGVRDGMEYPFIGEGEPHVDGEPGDLRFRIKVVKHPIFERRGDDLYTNVTISLVESLVGFEMDITHLDGHKVHISRDKITRPGAKLWKKGEGLPNFDNNNIKGSLIITFDVDFPKEQLTEEAREGIKQLLKQGSVQKVYNGLQGY [DNAJB11] | -0.0195 | 0.337 | 54.7 | 55 | 3 | 0.842 |
